*1 amine or outer side, *2 acyl side, *3 side chain or, on linkers, in order; H or OH if unused. [ ]: non-standard residue; d: D form. Ser(Me) = O-methylserine, COC[C@H](N[*:1])C(=O)[*:2]; 2Nal = N[C@@H](Cc1ccc2ccccc2c1)C(=O)O; Arg(Me) = CNC(=N)NCCC[C@H](N)C(=O)O; Dap(CONH2) = NC(=O)NC[C@H](N)C(=O)O; Ala(cPr) = N[C@@H](CC1CC1)C(=O)O; Hyp = O=C(O)[C@@H]1C[C@@H](O)CN1; Aad = N[C@@H](CCCC(=O)O)C(=O)O; Cha = N[C@@H](CC1CCCCC1)C(=O)O; Cit = NC(=O)NCCC[C@H](N)C(=O)O; Nva = CCC[C@H](N)C(=O)O; Abu = CC[C@H](N)C(=O)O; Aib = CC(C)(N)C(=O)O

The experiment has as its target metastin receptor (OT7T175) stably expressed on CHO/dhfr- cells (human or rat, not given). Nature of the experiment: cell-based or functional assay.

B1: des(1)-Ac-[D-Tyr2,Hyp3,Thr5,Nal(2)6,Arg(Me)9,Trp10]MS10 (peptide)
peptide: Ac-[dY][Hyp]NT[2Nal]GL[Arg(Me)]W-NH2
modifications: not fully specified (residue 7); printed as Ac-D-Tyr-Hyp-Asn-Thr-Nal(2)-Gly-Ala(cPr)-Arg(Me)-Trp-NH2
Turning to B1, the Specific Activity (EC50 of test compound based on EC50 of Metastin (45-54)); agonist activity, intracellular calcium ion level, FLIPR (ratio to Metastin (45-54)) was 1.
For the molecule Ac-[dY][Hyp][Dap(CONH2)]TFGL[Arg(Me)]W-NH2 (also: Gly6-Leu7 -CONH- replaced by (E)-CH=CH-) [des(1)-Ac-[D-Tyr2,Hyp3,Alb4,Thr5,Gly7Ψ((E)CH═CH)Leu8,Arg(Me)9,Trp10]MS10], the Specific Activity (EC50 of test compound based on EC50 of Metastin (45-54)); agonist activity, intracellular calcium ion level, FLIPR (ratio to Metastin (45-54)) was 0.6.
For Ac-[dY]ENT[Cha]G[Nva][Arg(Me)]W-NH2 [des(1)-Ac-[D-Tyr2,Glu3,Thr5,Cha6,Nva8,Arg(Me)9,Trp10]MS10] the value was 0.4.

B2: des(1)-Ac-[D-Tyr2,Hyp3,Thr5,Cha6,Ala(cPr)8,Arg(Me)9,Trp10]MS10 (peptide)
peptide: Ac-[dY][Hyp]NT[Cha]G[Ala(cPr)][Arg(Me)]W-NH2
SMILES: CNC(=N)NCCC[C@H](NC(=O)[C@H](CC1CC1)NC(=O)CNC(=O)[C@H](CC1CCCCC1)NC(=O)[C@@H](NC(=O)[C@H](CC(N)=O)NC(=O)[C@@H]1C[C@@H](O)CN1C(=O)[C@@H](Cc1ccc(O)cc1)NC(C)=O)[C@@H](C)O)C(=O)N[C@@H](Cc1c[nH]c2ccccc12)C(N)=O
For B2, the Specific Activity (EC50 of test compound based on EC50 of Metastin (45-54)); agonist activity, intracellular calcium ion level, FLIPR (ratio to Metastin (45-54)) is 0.5.
The same measure for Ac-[dY][Hyp]NTFGLRW-NH2 (also: Gly6-Leu7 -CONH- replaced by (E) CH=CH) [des(1)-Ac-[D-Tyr2,Hyp3,Thr5,Gly7Ψ((E)CH═CH)Leu8,Trp10]MS10]: 0.4; for Ac-[dY][Aad]NT[Cha]G[Ala(cPr)][Arg(Me)]W-NH2 [des(1)-Ac-[D-Tyr2,Aad3,Thr5,Cha6,Ala(cPr)8,Arg(Me)9,Trp10]MS10]: 1.1.
The same measure for Ac-[dY][Hyp]NTF[Abu]L[Arg(Me)]W-NH2 [des(1)-Ac-[D-Tyr2,Hyp3,Thr5,Abu7,Arg(Me)9,Trp10]MS10]: 1; for Ac-[dY][Hyp]NTFG[Ser(Me)][Arg(Me)]W-NH2 [des(1)-Ac-[D-Tyr2,Hyp3,Thr5,Ser(Me)8,Arg(Me)9,Trp10]MS10]: 0.8; for Ac-[dY][Hyp]ET[Cha]GL[Arg(Me)]W-NH2 (also: Gly6-Leu7 -CONH- replaced by (E)-CH=CH-) [des(1)-Ac-[D-Tyr2,Hyp3,Glu4,Thr5,Cha6,Gly7Ψ((E)CH═CH)Leu8,Arg(Me)9,Trp10]MS10]: 4.6.
The same measure for Ac-[dY][Hyp]NTF[Aib]L[Arg(Me)]W-NH2 [des(1)-Ac-[D-Tyr2,Hyp3,Thr5,Aib7,Arg(Me)9,Trp10]MS10]: 1.5.
Consider Ac-[dY][Hyp][Dap(CONH2)]T[Cha]GL[Arg(Me)]W-NH2 (also: Gly6-Leu7 -CONH- replaced by (E) type alkene) [des(1)-Ac-[D-Tyr2,Hyp3,Alb4,Thr5,Cha6,Gly7Ψ((E)CH═CH)Leu8,Arg(Me)9,Trp10]MS10], for which the Specific Activity (EC50 of test compound based on EC50 of Metastin (45-54)); agonist activity, intracellular calcium ion level, FLIPR (ratio to Metastin (45-54)) was 0.4.
The same measure for Ac-[dY]ENT[Cha]GL[Arg(Me)]W-NH2 (also: Gly6-Leu7 -CONH- replaced by (E) type alkene) [des(1)-Ac-[D-Tyr2,Glu3,Thr5,Cha6,Gly7Ψ((E)CH═CH)Leu8,Arg(Me)9,Trp10]MS10]: 0.5.
The same measure for Ac-[dY]DNT[Cha]G[Ala(cPr)][Arg(Me)]W-NH2 [des(1)-Ac-[D-Tyr2,Asp3,Thr5,Cha6,Ala(cPr)8,Arg(Me)9,Trp10]MS10]: 2.5; for Ac-[dY]ENT[Cha]G[Ala(cPr)][Arg(Me)]W-NH2 [des(1)-Ac-[D-Tyr2,Glu3,Thr5,Cha6,Ala(cPr)8,Arg(Me)9,Trp10]MS10]: 0.4.

B3: des(1)-Ac-[D-Tyr2,Hyp3,Thr5,Cha6,Ser(Me)8,Arg(Me)9,Trp10]MS10 (peptide)
peptide: Ac-[dY][Hyp]NT[Cha]G[Ser(Me)][Arg(Me)]W-NH2
SMILES: CNC(=N)NCCC[C@H](NC(=O)[C@H](COC)NC(=O)CNC(=O)[C@H](CC1CCCCC1)NC(=O)[C@@H](NC(=O)[C@H](CC(N)=O)NC(=O)[C@@H]1C[C@@H](O)CN1C(=O)[C@@H](Cc1ccc(O)cc1)NC(C)=O)[C@@H](C)O)C(=O)N[C@@H](Cc1c[nH]c2ccccc12)C(N)=O
Consider B3, for which the Specific Activity (EC50 of test compound based on EC50 of Metastin (45-54)); agonist activity, intracellular calcium ion level, FLIPR (ratio to Metastin (45-54)) turned out to be 0.5.
The same measure for Ac-[dY]ENTFGL[Arg(Me)]W-NH2 (also: Gly6-Leu7 -CONH- replaced by (E) type alkene) [des(1)-Ac-[D-Tyr2,Glu3,Thr5,Gly7Ψ((E)CH═CH)Leu8,Arg(Me)9,Trp10]MS10]: 0.6.
Turning to Ac-[dY][Hyp]QT[Cha]GL[Arg(Me)]W-NH2 (also: Gly6-Leu7 -CONH- replaced by (E)-CH=CH-) [des(1)-Ac-[D-Tyr2,Hyp3,Gln4,Thr5,Cha6,Gly7Ψ((E)CH═CH)Leu8,Arg(Me)9,Trp10]MS10], the Specific Activity (EC50 of test compound based on EC50 of Metastin (45-54)); agonist activity, intracellular calcium ion level, FLIPR (ratio to Metastin (45-54)) was determined as 1.4.

B4: des(1)-Ac-[D-Tyr2,Hyp3,Thr5,Cha6,Nva8,Arg(Me)9,Trp10]MS10 (peptide)
peptide: Ac-[dY][Hyp]NT[Cha]G[Nva][Arg(Me)]W-NH2
SMILES: CCC[C@H](NC(=O)CNC(=O)[C@H](CC1CCCCC1)NC(=O)[C@@H](NC(=O)[C@H](CC(N)=O)NC(=O)[C@@H]1C[C@@H](O)CN1C(=O)[C@@H](Cc1ccc(O)cc1)NC(C)=O)[C@@H](C)O)C(=O)N[C@@H](CCCNC(=N)NC)C(=O)N[C@@H](Cc1c[nH]c2ccccc12)C(N)=O
As to B4, the Specific Activity (EC50 of test compound based on EC50 of Metastin (45-54)); agonist activity, intracellular calcium ion level, FLIPR (ratio to Metastin (45-54)) was 0.5.
For Ac-[dY][Hyp]NTFGL[Arg(Me)]W-NH2 (also: Gly6-Leu7 -CONH- replaced by (E) CH=CH) [des(1)-Ac-[D-Tyr2,Hyp3,Thr5,Gly7Ψ((E)CH═CH)Leu8,Arg(Me)9,Trp10]MS10] the value was 0.6; for Ac-[dY][Hyp]NTFG[Ala(cPr)][Arg(Me)]W-NH2 [des(1)-Ac-[D-Tyr2,Hyp3,Thr5,Ala(cPr)8,Arg(Me)9,Trp10]MS10], 0.8.
The same measure for Ac-[dY][Hyp][Dap(CONH2)]TFGL[Arg(Me)]W-NH2 [des(1)-Ac-[D-Tyr2,Hyp3,Alb4,Thr5,Arg(Me)9,Trp10]MS10]: 0.5; for Ac-[dY][Aib]NT[Cha]G[Ala(cPr)][Arg(Me)]W-NH2 [des(1)-Ac-[D-Tyr2,Aib3,Thr5,Cha6,Ala(cPr)8,Arg(Me)9,Trp10]MS10]: 0.6; for Ac-[dY][Hyp]NTFSL[Arg(Me)]W-NH2 [des(1)-Ac-[D-Tyr2,Hyp3,Thr5,Ser7,Arg(Me)9,Trp10]MS10]: 0.6.
The same measure for Ac-[dY]E[Dap(CONH2)]T[Cha]GL[Arg(Me)]W-NH2 (also: Gly6-Leu7 -CONH- replaced by (E) type alkene) [des(1)-Ac-[D-Tyr2,Glu3,Alb4,Thr5,Cha6,Gly7Ψ((E)CH═CH)Leu8,Arg(Me)9,Trp10]MS10]: 0.5.
Regarding Ac-[dY][Hyp]NT[Cha]GLRW-NH2 (also: Gly6-Leu7 -CONH- replaced by (E) CH=CH) [des(1)-Ac-[D-Tyr2,Hyp3,Thr5,Cha6,Gly7Ψ((E)CH═CH)Leu8,Trp10]MS10], the Specific Activity (EC50 of test compound based on EC50 of Metastin (45-54)); agonist activity, intracellular calcium ion level, FLIPR (ratio to Metastin (45-54)) was 0.6.
The same measure for Ac-[dY]E[Dap(CONH2)]TFGL[Arg(Me)]W-NH2 (also: Gly6-Leu7 -CONH- replaced by (E) type alkene) [des(1)-Ac-[D-Tyr2,Glu3,Alb4,Thr5,Gly7Ψ((E)CH═CH)Leu8,Arg(Me)9,Trp10]MS10]: 0.5.
For Ac-[dY]KNT[Cha]G[Ala(cPr)][Arg(Me)]W-NH2 (also: classed as cyclised or stapled) [des(1)-Ac-[D-Tyr2,Lys3,Thr5,Cha6,Ala(cPr)8,Arg(Me)9,Trp10]MS10] the value was 0.7.
For Ac-[dY]ENT[Cha]G[Ser(Me)][Arg(Me)]W-NH2 [des(1)-Ac-[D-Tyr2,Glu3,Thr5,Cha6,Ser(Me)8,Arg(Me)9,Trp10]MS10] the value was 0.5; for Ac-[dY][Hyp]NTFG[Nva][Arg(Me)]W-NH2 [des(1)-Ac-[D-Tyr2,Hyp3,Thr5,Nva8,Arg(Me)9,Trp10]MS10], 0.7; for Ac-[dY][Hyp][Cit]T[Cha]GL[Arg(Me)]W-NH2 (also: Gly6-Leu7 -CONH- replaced by (E)-CH=CH-) [des(1)-Ac-[D-Tyr2,Hyp3,Cit4,Thr5,Cha6,Gly7Ψ((E)CH═CH)Leu8,Arg(Me)9,Trp10]MS10], 0.9.
With Ac-[dY][Hyp]NTFGL[Arg(Me)]W-NH2 (also: Gly6-Leu7 -CONH- replaced by -CH2CH2-) [des(1)-Ac-[D-Tyr2,Hyp3,Thr5,Gly7Ψ(CH2CH2)Leu8,Arg(Me)9,Trp10]MS10], the Specific Activity (EC50 of test compound based on EC50 of Metastin (45-54)); agonist activity, intracellular calcium ion level, FLIPR (ratio to Metastin (45-54)) is 0.8.
The same measure for Ac-[dY][Hyp]NT[Cha]GL[Arg(Me)]W-NH2 (also: Gly6-Leu7 -CONH- replaced by (E)-CH=CH-) [des(1)-Ac-[D-Tyr2,Hyp3,Thr5,Cha6,Gly7Ψ((E)CH═CH)Leu8,Arg(Me)9,Trp10]MS10]: 0.6.

These data come from patent US7786083B2, “Metastin derivatives and use thereof” (Takeda Pharmaceutical Company Limited, priority 2006, dated 2010).
